Assay [1] addresses T1, extracellular domain of hIL10Rb (human, UniProt Q08334 20-220).
T1 construct: also called hIL10Rb ECD; human IL10Rb
T1 sequence: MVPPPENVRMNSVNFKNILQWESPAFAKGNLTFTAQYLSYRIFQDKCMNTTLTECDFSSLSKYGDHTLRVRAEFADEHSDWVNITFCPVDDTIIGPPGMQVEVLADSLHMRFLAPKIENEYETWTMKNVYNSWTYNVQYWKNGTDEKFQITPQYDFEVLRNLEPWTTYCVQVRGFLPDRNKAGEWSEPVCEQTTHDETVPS
The experiment in a line: flow cytometry. A general note: In flow cytometry, cells or beads pass a laser one at a time.

The target in assay [2] is T2, extracellular domain of mIL10Rb (mouse, UniProt Q61190 20-220).
T2 construct: also called mIL10Rb ECD; murine IL10Rb
T2 sequence: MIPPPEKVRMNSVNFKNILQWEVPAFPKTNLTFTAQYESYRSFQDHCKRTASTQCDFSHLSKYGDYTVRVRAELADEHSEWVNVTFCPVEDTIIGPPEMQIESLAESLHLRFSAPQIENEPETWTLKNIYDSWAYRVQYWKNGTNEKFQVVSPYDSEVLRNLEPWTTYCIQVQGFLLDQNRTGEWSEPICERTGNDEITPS
The experiment in a line: flow cytometry, cross-reactivity.

Residue numbers refer to the chain shown, from its start.

B1: hIL10Rb_VHH-15 (VHH)
VHH: QVQLQESGGGSVQAGGSLRLSCTVSRYTASVNYMGWFRQAPGKEREGVATIFTGAGTTYYANSVKGRFTISRDNAKNTAYLQMNSLKPEDTAIYYCAVDFRGGLLYRPAYEYTYRGQGTQVTVSS
notes: anti-hIL10Rb camel VHH
As to B1, the binding result in assay [1] is “binds”.

B2: hIL10Rb_VHH-17 (VHH)
VHH: B1 VHH with I93M
notes: anti-hIL10Rb camel VHH
For B2, the binding result in assay [1] is on record as “binds”.

B3: hIL10Rb_VHH-2 (VHH)
VHH: QVQLQESGGGSVQAGGSLRLSCAASGYTYSSYCMGWFRQAPGKEREGVAAIDSDGSTRYADSVKGRFTISKDNAKNTLYLQMNSLKPEDTAMYYCAAEPYCSGGYKRTMVAEFGYWGQGTQVTVSS
notes: anti-hIL10Rb camel VHH
On to B3, for which the binding result in assay [1] is “binds”.

B4: hIL10Rb_VHH-18 (VHH)
VHH: B3 VHH with Y27D, A50F, K64E, K106H, T108K, M109E, V110M
notes: anti-hIL10Rb camel VHH
With B4, the binding result in assay [1] was “binds”.

B5: hIL10Rb_VHH-8 (VHH)
VHH: QVQLQESGGGSVQAGGSLRLSCAASGYSYSSYCMGWFRQAPGKEREGVAAIASDGSTSYADSVKGRFAISKDNAKNTLYLQMASLKPEDTAMYYCAAEPWCTGGYSRLTPAEYGYWGQGTQVTVSS
notes: anti-hIL10Rb camel VHH
In the case of B5, in assay [1], the binding result was “binds”.

B6: hIL10Rb_VHH-7 (VHH)
VHH: B3 VHH with Y32G, A50T, D52N, R58N, K106P, T108W, M109S
notes: anti-hIL10Rb camel VHH
In the case of B6, the binding result in assay [1] is on record as “binds”.

B7: hIL10Rb_VHH-14 (VHH)
VHH: B3 VHH with Y32G, A50T, D52N, R58N, A91G, K106P, T108W, M109S
notes: anti-hIL10Rb camel VHH
Turning to B7, in assay [1], the binding result was “binds”.

B8: hIL10Rb_VHH-9 (VHH)
VHH: B3 VHH with S11L, A14P, Y32G, A50T, D52N, R58N, K106P, T108W, M109S
notes: anti-hIL10Rb camel VHH
In the case of B8, in assay [1], the binding result was “binds”.

B9: hIL10Rb_VHH-23 (VHH)
VHH: B3 VHH with N76K, T77I, P87V, Y115F
notes: anti-hIL10Rb camel VHH
Turning to B9, the binding result in assay [1] is reported as “binds”.

B10: hIL10Rb_VHH-1 (VHH)
VHH: B3 VHH with Y32G, G47A, D52N, R58S, K106P, T108W, M109S
notes: anti-hIL10Rb camel VHH
Regarding B10, the binding result in assay [1] was “binds”.

B11: hIL10Rb_VHH-11 (VHH)
VHH: B3 VHH with E44G
notes: anti-hIL10Rb camel VHH
Turning to B11, the binding result in assay [1] is given as “binds”.

B12: hIL10Rb_VHH-16 (VHH)
VHH: QVQLQESGGGSVEAGGSLRLSCAASGYTHSSYCMGWFRQAPGKEREGVAAIDVDGSTTYADSVKGRFTISKDNAKNTLYLQMNSLKPEDTGMYYCAAEFADCSSNYFLPPGAVRYWGQGTQVTVSS
notes: anti-hIL10Rb camel VHH
In the case of B12, the binding result in assay [1] and in assay [2] was “binds” each time.

B13: hIL10Rb_VHH-26 (VHH)
VHH: QVQLQESGGGSVQAGGSLRLSCAASGYSYSSYCMGWFRQAPGKEREGVATIDSDGMTRYADSVKGRFTISKDNAKNTLYLQMNSLKPEDTAMYYCAAPLYDCDSGAVGRNPPYWGQGTQVTVSS
notes: anti-hIL10Rb camel VHH
As to B13, the binding result in assay [1] and in assay [2] was “binds” in each case.

B14: hIL10Rb_VHH-12 (VHH)
VHH: QVQLQESGGGSVQAGGSLRLSCAASGYTYSSYCMGWFRQAPGKEREGVAHIDSDGSTSYADSVKGRFTISKDNAKNTLYLQMNSLKPEDTAMYYCAADPIPGPGYCDGGPNKYWGQGTQVTVSS
notes: anti-hIL10Rb camel VHH
Consider B14, for which the binding result in assay [1] and in assay [2] was “binds” throughout.

B15: hIL10Rb_VHH-19 (VHH)
VHH: B14 VHH with W114R
notes: anti-hIL10Rb camel VHH
Regarding B15, the binding result in assay [1] and in assay [2] was “binds” each time.

B16: hIL10Rb_VHH-10 (VHH)
VHH: B14 VHH with S11L, A14P, S58T, T68A
notes: anti-hIL10Rb camel VHH
On to B16, for which the binding result in assay [1] and in assay [2] was “binds” in each case.

B17: hIL10Rb_VHH-20 (VHH)
VHH: B14 VHH with S58T, T68A
notes: anti-hIL10Rb camel VHH
Regarding B17, the binding result in assay [1] and in assay [2] was “binds” throughout.

B18: hIL10Rb_VHH-5 (VHH)
VHH: B14 VHH with S11L, A14P, S58T
notes: anti-hIL10Rb camel VHH
With B18, the binding result in assay [1] is reported as “binds”.

B19: hIL10Rb_VHH-25 (VHH)
VHH: B14 VHH with V48I, S58T, K112N
notes: anti-hIL10Rb camel VHH
With B19, the binding result in assay [1] and in assay [2] was “binds” in each case.

B20: hIL10Rb_VHH-22 (VHH)
VHH: B14 VHH with Y29D, S31R, Q39K
notes: anti-hIL10Rb camel VHH
In the case of B20, the binding result in assay [1] and in assay [2] was “binds” in each case.

B21: hIL10Rb_VHH-13 (VHH)
VHH: B14 VHH with K112N
notes: anti-hIL10Rb camel VHH
In the case of B21, the binding result in assay [1] and in assay [2] was “binds” each time.

B22: hIL10Rb_VHH-24 (VHH)
VHH: B14 VHH with R19K, S58T, K112N
notes: anti-hIL10Rb camel VHH
In the case of B22, the binding result in assay [1] and in assay [2] was “binds” throughout.

B23: hIL10Rb_VHH-4 (VHH)
VHH: QVQLQESGGGSIQAGGSLRLSCAASRYLYSIDYMAWFRQSPGKEREPVAVIYTASGATFYPDSVKGRFTISQDNAKMTVYLQMNSLKSEDTAMYYCAAVRKTDSYLFDAQSFTYWGQGTQVTVSS
notes: anti-hIL10Rb camel VHH
In the case of B23, the binding result in assay [1] and in assay [2] was “binds” throughout.

B24: hIL10Rb_VHH-6 (VHH)
VHH: B23 VHH with R19T, Y27D, I31T, D32N, M34V, P47A, F59L, P61S, D103G, S104H
notes: anti-hIL10Rb camel VHH
Consider B24, for which the binding result in assay [1] and in assay [2] was “binds” each time.

B25: hIL10Rb_VHH-27 (VHH)
VHH: QVQLQESGGGSVQTGGSLRLSCAASGYTYLRGCMGWFRQAPGKEREGVAVMDVVGDRRSYIDSVKGRFTISRDNAANSVYLQMDNLKPEDTAMYYCTAGPNCVGWRSGLDYWGQGTQVTVSS
notes: anti-hIL10Rb camel VHH
As to B25, in assay [1], the binding result is “binds”.

B26: hIL10Rb_VHH-3 (VHH)
VHH: QVQLQESGGGSVQAGGSLRLSCAASRYTYNSYCMGWFRQAPGKEREGVATIDSDGMTRYADSVKGRFTISKDNAKNTLYLQMNSLKPEDTAMYYCAADADCTIAAMTTNPLGQGTQVTVSS
notes: anti-hIL10Rb camel VHH
B26: the binding result in assay [1] and in assay [2] was “binds” each time.

For the origin of these results see patent US20230391891A1 (SYNTHEKINE, published 2023).
